Data set [1] addresses CLEAVASE A/G nuclease (Thermus aquaticus) (UniProt P19821). In words: cleavage_in_vitro. Particulars: probe cleaved in 30 min.
Data set [2] deals with DNAPTth (Thermus thermophilus) (UniProt P52028). Put plainly: cleavage_in_vitro. Particulars: probe cleaved in 30 min.
Data set [3] has as its target MAM FEN1 (arch swap chimera) (Methanococcus jannaschii / Archaeoglobus fulgidus?) (UniProt Q58839). In words: cleavage_in_vitro. Particulars: rate vs Pfu FEN1.
Data set [4] addresses MPM FEN1 (arch swap chimera) (Methanococcus jannaschii / Pyrococcus furiosus?) (UniProt Q58839). In words: cleavage_in_vitro. Particulars: rate vs Pfu FEN1.
Data set [5] concerns the target Mja + P16 FEN1 (loop swap chimera) (Methanococcus jannaschii / Pyrococcus furiosus?) (UniProt Q58839). Put plainly: cleavage_in_vitro. Particulars: rate vs Pfu FEN1.
Data set [6] addresses PAP FEN1 (arch swap chimera) (Pyrococcus furiosus / Archaeoglobus fulgidus?) (UniProt O93634). Put plainly: cleavage_in_vitro. Particulars: rate vs Pfu FEN1.
The target of data set [7] is PMP FEN1 (arch swap chimera) (UniProt O93634). Put plainly: cleavage_in_vitro. Particulars: rate vs Pfu FEN1.
Data set [8] deals with Pfu + M4 FEN1 (loop swap chimera) (UniProt O93634). Put plainly: cleavage_in_vitro. Particulars: rate vs Pfu FEN1.
The target in data set [9] is T1, Mja FEN1 (Methanococcus jannaschii) (UniProt Q58839).
T1 sequence: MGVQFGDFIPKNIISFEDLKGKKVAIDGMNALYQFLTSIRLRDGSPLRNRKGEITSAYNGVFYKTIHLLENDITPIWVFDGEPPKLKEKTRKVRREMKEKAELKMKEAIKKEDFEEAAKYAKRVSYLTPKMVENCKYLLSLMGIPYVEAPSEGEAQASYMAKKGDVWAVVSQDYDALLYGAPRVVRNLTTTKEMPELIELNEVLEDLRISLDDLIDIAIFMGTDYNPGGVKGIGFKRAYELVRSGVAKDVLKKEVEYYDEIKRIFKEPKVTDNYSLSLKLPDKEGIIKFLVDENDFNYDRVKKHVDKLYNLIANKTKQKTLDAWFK
In words: cleavage_in_vitro. Particulars: turnover.

Data set [10] concerns the target T2, Pfu FEN1 (Pyrococcus furiosus) (UniProt O93634).
T2 sequence: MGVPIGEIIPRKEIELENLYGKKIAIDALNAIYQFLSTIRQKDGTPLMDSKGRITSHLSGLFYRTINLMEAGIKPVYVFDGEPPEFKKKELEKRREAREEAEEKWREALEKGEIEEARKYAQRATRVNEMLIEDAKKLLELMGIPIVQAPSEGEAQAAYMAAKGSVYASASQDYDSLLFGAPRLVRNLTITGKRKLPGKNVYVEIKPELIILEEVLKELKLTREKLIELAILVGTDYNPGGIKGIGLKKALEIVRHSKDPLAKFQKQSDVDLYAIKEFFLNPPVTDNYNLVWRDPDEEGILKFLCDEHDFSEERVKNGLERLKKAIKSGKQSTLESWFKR
In words: cleavage_in_vitro. Particulars: turnover.

Data set [11] concerns Thermus aquaticus DNA polymerase.
Thermus aquaticus DNA polymerase, sequence (chain, as listed by the source): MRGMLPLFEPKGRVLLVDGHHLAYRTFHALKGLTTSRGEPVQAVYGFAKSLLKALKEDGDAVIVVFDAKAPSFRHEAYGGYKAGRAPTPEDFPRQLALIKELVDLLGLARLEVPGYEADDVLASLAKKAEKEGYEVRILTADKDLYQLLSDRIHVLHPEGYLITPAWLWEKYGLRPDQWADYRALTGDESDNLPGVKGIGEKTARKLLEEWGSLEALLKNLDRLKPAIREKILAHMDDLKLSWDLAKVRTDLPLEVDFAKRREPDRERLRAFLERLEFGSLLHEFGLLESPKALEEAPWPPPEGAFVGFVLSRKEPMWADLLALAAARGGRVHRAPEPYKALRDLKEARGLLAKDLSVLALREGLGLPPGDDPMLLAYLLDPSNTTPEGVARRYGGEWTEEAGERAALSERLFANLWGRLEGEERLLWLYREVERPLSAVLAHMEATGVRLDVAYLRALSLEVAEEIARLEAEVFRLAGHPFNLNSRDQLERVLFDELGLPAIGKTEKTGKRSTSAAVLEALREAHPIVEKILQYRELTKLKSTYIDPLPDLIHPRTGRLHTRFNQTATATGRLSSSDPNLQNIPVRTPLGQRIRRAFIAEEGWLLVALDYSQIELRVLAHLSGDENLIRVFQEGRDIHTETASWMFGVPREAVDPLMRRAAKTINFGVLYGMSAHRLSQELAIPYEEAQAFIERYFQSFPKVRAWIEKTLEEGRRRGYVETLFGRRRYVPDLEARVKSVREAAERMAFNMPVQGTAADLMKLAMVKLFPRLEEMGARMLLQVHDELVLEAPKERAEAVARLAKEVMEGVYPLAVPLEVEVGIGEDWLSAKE
In data set [12] the test system is CLEAVASE BN/thrombin nuclease.
CLEAVASE BN/thrombin nuclease, sequence (chain, as listed by the source): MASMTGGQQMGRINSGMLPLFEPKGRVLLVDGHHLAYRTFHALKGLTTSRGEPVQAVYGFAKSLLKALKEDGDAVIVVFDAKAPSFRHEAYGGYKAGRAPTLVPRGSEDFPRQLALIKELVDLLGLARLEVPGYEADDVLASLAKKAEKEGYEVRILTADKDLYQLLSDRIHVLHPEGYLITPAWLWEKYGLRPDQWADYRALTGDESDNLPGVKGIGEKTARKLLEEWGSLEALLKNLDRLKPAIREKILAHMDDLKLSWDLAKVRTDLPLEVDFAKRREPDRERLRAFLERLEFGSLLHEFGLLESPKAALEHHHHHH

CLEAVASE BN nuclease, sequence (chain, as listed by the source): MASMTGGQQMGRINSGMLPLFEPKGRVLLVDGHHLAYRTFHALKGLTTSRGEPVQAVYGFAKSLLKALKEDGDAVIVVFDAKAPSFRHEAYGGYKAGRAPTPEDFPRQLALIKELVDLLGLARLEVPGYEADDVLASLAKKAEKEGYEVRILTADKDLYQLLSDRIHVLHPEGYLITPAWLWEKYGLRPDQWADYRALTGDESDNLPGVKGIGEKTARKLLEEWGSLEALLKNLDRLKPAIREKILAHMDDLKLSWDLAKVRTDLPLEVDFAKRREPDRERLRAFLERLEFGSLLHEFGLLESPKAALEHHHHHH
DNAPTth (Thermus thermophilus), sequence (P52028 whole entry): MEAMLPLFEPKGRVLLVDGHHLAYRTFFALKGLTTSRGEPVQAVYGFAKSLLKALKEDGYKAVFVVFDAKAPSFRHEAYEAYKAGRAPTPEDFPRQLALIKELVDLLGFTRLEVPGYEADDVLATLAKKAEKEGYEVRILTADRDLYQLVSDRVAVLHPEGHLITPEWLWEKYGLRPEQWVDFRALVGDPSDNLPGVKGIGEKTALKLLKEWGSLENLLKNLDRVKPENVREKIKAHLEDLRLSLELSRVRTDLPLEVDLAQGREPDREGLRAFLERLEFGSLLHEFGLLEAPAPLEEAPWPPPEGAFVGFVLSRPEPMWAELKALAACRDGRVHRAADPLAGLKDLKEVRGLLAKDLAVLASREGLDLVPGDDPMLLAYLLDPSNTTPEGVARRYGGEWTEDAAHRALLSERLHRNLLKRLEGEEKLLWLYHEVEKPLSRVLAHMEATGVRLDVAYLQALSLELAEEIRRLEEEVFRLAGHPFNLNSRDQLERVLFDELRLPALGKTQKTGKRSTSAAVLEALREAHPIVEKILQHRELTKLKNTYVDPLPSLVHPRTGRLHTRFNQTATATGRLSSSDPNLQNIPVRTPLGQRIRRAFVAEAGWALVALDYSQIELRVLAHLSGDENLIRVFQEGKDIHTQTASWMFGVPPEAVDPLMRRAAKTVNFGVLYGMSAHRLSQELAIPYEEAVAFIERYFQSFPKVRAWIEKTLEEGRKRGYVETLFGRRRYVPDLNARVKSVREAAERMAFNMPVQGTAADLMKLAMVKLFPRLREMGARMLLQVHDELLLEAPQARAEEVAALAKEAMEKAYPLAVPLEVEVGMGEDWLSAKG

As to “CCGGTCGTCCTGGCAATXCC / GTTTATCCAAGAAAGGACCCGGTC [HCV RNA target/probe/INVADER (DNA oligos listed)]”, the activity stood at 32% in data set [1] and 70% in [2].
As for “TTTTCAACTGCTTAGAGAATCTAAGCAGTTGGTGCGCCTCGTTAA / AACGAGGCGCACATT [X-structure 203-81-2/203-91-2]”, the cleavage rate in [3] (3'-NH2 on first strand) came out at 0.07; in data set [4] (3'-NH2 on first strand) it was 0.1; in [5] (3'-NH2 on first strand), 59; in data set [6] (3'-NH2 on first strand), 0.52; in data set [7] (3'-NH2 on first strand), 1.37; in data set [8] (3'-NH2 on first strand), 0.28.
Take “TTTTTCACGGCAGTTGGTGCGCCTCGGAACGAGGCGCACA / TTTTCAACTGCCGTGA [INVADER substrate 594-12-1/203-91-1]”: the cleavage rate was 0.03 in data set [3]; 0.14 in data set [4]; 1.2 in data set [5]; 0.56 in [6]; 2.4 in [7]; 0.05 in [8].
As for duplex length 0 substrate, the activity in data set [9] and in data set [10] was 0 per min each time.
Consider duplex length 3 substrate, for which the figures for the activity in [9] and in data set [10] were 29 per min and 1 per min, respectively.
For duplex length 4 substrate, the activity in data set [9] worked out at 57 per min; in data set [10] it was 10 per min.
Taken in the same sequence, the figures for duplex length 6 substrate were 51 per min and 44 per min.
Take duplex length 8 substrate: the activity in data set [9] was 46 per min; in data set [10], 45 per min.
With factor Xa, the “protease digestion of the unmodified nuclease” value (with CLEAVASE BN nuclease; in data set [11]) was “Both nuclease proteins were cut with factor Xa within the 5′ nuclease domain” each time.
For the substance thrombin, the “protease digestion of the unmodified nuclease” value (in the data set on CLEAVASE BN nuclease; in data set [11]) was “neither nuclease was digested with large amounts of thrombin” in each case. The “thrombin digestion, SDS-PAGE with Coomassie stain” value in data set [12] was “CLEAVASE BN/thrombin nuclease is efficiently cleaved by thrombin”.

Source of the values: US20050048527.
